According to patent US20070004909A1:

Target: soluble CD16A (sCD16A) (UniProt P08637)
Assay: SPR (BIAcore 1000); receptor amine-coupled (~1000 RU), scFv as analyte; units not printed (koff/kon implies nM)

Sequence of soluble CD16A (sCD16A) (P08637 17-208 limits assumed): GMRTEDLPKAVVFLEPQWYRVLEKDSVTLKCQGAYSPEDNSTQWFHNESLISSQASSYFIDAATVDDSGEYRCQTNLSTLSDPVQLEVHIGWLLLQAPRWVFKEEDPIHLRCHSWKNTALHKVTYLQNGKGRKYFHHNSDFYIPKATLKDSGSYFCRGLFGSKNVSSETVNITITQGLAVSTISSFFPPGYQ

Kd: 38.7 nM
Substance: h3G8 scFv
